Data taken from publication PMC5986765 (Cell Discovery, 2018).
Bridge positions count the residues as written; N and C are the ends. Ends that are not written are not given here.

T1: chicken ASIC1a (cASIC1a) (Gallus gallus, UniProt Q1XA76)
T1 construct: expressed in transfected cells; host or cells: CHO cells, transient transfection, pcDNA3.1/Zeo(+)
T1 sequence (Q1XA76 1-527): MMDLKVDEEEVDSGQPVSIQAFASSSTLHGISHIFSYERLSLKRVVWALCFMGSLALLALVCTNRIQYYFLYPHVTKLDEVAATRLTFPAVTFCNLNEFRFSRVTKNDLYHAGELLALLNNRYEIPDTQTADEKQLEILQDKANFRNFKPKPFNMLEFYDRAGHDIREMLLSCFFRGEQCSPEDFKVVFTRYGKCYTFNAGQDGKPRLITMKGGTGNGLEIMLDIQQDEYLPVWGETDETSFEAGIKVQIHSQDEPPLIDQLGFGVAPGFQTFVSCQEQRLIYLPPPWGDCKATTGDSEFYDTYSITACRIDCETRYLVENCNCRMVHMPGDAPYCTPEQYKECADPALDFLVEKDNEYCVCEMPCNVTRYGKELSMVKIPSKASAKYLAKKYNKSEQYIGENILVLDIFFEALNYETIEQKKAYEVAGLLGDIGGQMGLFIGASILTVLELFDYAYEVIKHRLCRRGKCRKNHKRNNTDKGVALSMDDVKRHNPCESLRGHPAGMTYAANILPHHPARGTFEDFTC

T2: human ASIC1a (hASIC1a) (Homo sapiens, UniProt P78348)
T2 construct: expressed in transfected cells; host or cells: CHO cells
T2 sequence (P78348 1-528): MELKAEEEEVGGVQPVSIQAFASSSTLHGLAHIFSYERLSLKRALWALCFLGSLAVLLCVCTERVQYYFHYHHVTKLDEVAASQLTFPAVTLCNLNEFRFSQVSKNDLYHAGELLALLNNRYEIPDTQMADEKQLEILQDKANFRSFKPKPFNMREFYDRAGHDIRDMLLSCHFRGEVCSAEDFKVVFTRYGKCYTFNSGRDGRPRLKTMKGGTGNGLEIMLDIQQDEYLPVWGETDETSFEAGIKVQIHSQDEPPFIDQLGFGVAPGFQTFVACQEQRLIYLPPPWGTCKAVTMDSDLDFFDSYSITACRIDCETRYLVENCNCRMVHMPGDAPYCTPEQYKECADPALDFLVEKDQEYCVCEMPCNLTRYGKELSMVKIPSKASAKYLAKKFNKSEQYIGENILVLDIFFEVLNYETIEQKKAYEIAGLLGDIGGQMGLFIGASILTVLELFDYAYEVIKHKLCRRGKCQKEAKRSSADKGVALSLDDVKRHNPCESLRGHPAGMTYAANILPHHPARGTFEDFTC

B1: mambalgin-1 (peptide)
chain: LKCYQHGKVVTCHRDMKFCYHNTGMPFRNLKLILQGCSSSCSETENNKCCSTDRCNK
notes: also called synthetic mambalgin-1; wild-type mambalgin-1
B2: truncated chicken ASIC1a (residues 14-463), cASIC1a^ΔNC (domain or fragment)
chain: GQPVSIQAFASSSTLHGISHIFSYERLSLKRVVWALCFMGSLALLALVCTNRIQYYFLYPHVTKLDEVAATRLTFPAVTFCNLNEFRFSRVTKNDLYHAGELLALLNNRYEIPDTQTADEKQLEILQDKANFRNFKPKPFNMLEFYDRAGHDIREMLLSCFFRGEQCSPEDFKVVFTRYGKCYTFNAGQDGKPRLITMKGGTGNGLEIMLDIQQDEYLPVWGETDETSFEAGIKVQIHSQDEPPLIDQLGFGVAPGFQTFVSCQEQRLIYLPPPWGDCKATTGDSEFYDTYSITACRIDCETRYLVENCNCRMVHMPGDAPYCTPEQYKECADPALDFLVEKDNEYCVCEMPCNVTRYGKELSMVKIPSKASAKYLAKKYNKSEQYIGENILVLDIFFEALNYETIEQKKAYEVAGLLGDIGGQMGLFIGASILTVLELFDYAYEVIKHR
notes: not shown: His8, N-terminal, cleaved; EGFP, N-terminal, cleaved

Tests used:
chicken ASIC1a (cASIC1a) = target: T1, chicken ASIC1a (cASIC1a); experiment: whole-cell patch clamp in CHO cells, inhibition of chicken ASIC1a; assay type: cell-based; settings: for effect of mambalgin-1 point mutants on wild-type cASIC1a: 500 nM, means ± S.E., t-test versus WT, n = 4–13, bar graph Fig. 3e, values not given
From the text: (§1) Fig. 1 Chemical synthesis and bioactivity analysis of mambalgin-1. a Synthetic route of mambalgin-1 and its mutants. b Synthetic mambalgin-1 inhibits recombinant human and chicken ASIC1a (hASIC1a and cASIC1a) channels in CHO cells. After two stable records of acid currents that were elicited by a pH drop from 7.4 to 6.0 for 4 s, synthetic mambalgin-1 was applied at pH 7.4 for 30 s followed by another application during a 4spH drop to 6.0. c Concentration–response curve showing the inhibition of hASIC1a and cASIC1a channels expressed in CHO cells (n = 3–14) by synthetic wild-type mambalgin-1
The coding sequence for wild-type cASIC1a was sub-cloned into the pcDNA3.1/Zeo( + ) vector. All site-directed mutations were generated with overlap PCR and inserted into pcDNA3.1/Zeo(+). The mutants were sequenced to verify that no unwanted mutations had been introduced. Chinese hamster ovary (CHO) cells were cultured in DMEM/F12 medium (Gibco) supplemented with 10% fetal bovine serum (FBS), 100 U/mL penicillin, and 100 U/mL streptomycin at 37 °C in a 5% CO2 incubator. The CHO cells were transferred to 24-well plates for transfection. When the CHO cells reached 90% confluence, they were transfected with 0.6 μg of plasmid encoding EGFP and 0.8 μg of plasmid encoding wild-type or mutant cASIC1a using Lipofectamine 2000 (Invitrogen, USA). After incubation for 5 h, the cells were transferred to poly-L-lysine (Sigma)-coated slides for culture for another 24–48 h in fresh medium. They were then used for the electrophysiological analysis.
For the whole-cell recordings, the bath solution contained 150 mM NaCl, 4 mM KCl, 2 mM CaCl2, 1 mM MgCl2, and 10 mM HEPES (pH 7.4, ~308 mOsm). For acidic solution below pH 6.0, HEPES was replaced by 10 mM MES to buffer solutions. The electrodes were pulled from thick-walled borosilicate glass capillaries with filaments (1.5 mm diameter; Sutter Instruments) on a four-stage puller (P-1000; Sutter, USA) and had resistances of 2–5 MΩ when filled with intracellular solution containing 140 mM KCl, 10 mM NaCl, 5 mM EGTA, 10 mM HEPES, (pH 7.4, ~297 mOsm). All chemicals were obtained from Sigma. The experiments were performed at room temperature with an EPC-10 amplifier (HEKA Electronic) with the data acquisition software PatchMaster. Membrane potential was held at −70 mV in all experiments. Acid-induced currents were recorded by rapidly exchanging local solution from pH 7.4 to acidic pH through a Y-tube perfusion system. Toxins were applied 30 s before the pH decreased and persisted during low pH application. Channels were activated by acid perfusion at least every 2 min to allow for a complete recovery of the channels from desensitization. Recordings in which access resistance or capacitance changed by 10% during the experiment were excluded from data analysis. Mambalgin-1 was added when the currents were stable.
(§2) The data were analyzed with Clampfit and SigmaPlot. The dose–response curves used to determine the IC50 values were fitted using the Hill equation: y = 1 + (Imax−1)/(1 + (IC50/x)^h), where y represents the normalized current, Imax represents the control current of ASIC1 detected in each set of experiments; x is the toxin concentration, h is the Hill coefficient, and IC50 is the half-maximal concentration. The results are presented as the means ± standard errors (SE), and n is the number of experiments.

human ASIC1a (hASIC1a) = target: T2, human ASIC1a (hASIC1a); experiment: whole-cell patch clamp in CHO cells, inhibition of human ASIC1a; assay type: cell-based; settings: synthetic mambalgin-1, whole-cell recording at −70 mV, pH drop from 7.4 to 6.0 for 4 s, toxin applied 30 s before at pH 7.4 and during acid, room temperature, Hill fit, mean ± SE, n = 3–14
From the text: as §1
The coding sequence for wild-type cASIC1a was sub-cloned into the pcDNA3.1/Zeo( + ) vector. […]
For the whole-cell recordings, the bath solution contained 150 mM NaCl, 4 mM KCl, 2 mM CaCl2, 1 mM MgCl2, and 10 mM HEPES (pH 7.4, ~308 mOsm). […] Acid-induced currents were recorded by rapidly exchanging local solution from pH 7.4 to acidic pH through a Y-tube perfusion system. […]
as §2, with “The results are presented as the means ± standard errors (SE), and n is the number of experiments.” left out

mice = settings: cited from earlier work
From the text: Mambalgin-1, a toxin isolated from black mamba venom, is a disulfide-rich polypeptide consisting of 57 amino acids and belongs to the family of three-finger toxins[31],[38].

ASIC1a = settings: cited from earlier work
From the text: Mambalgin-1 can bind to and stabilize ASICs in a physiologically relevant closed-channel conformation, but the underlying binding and inhibition mechanism remains elusive. […] Previously, a docked structure of the cASIC1a–mambalgin-1 complex was reported[23],[24], following the crystal structure of the cASIC1a–PcTx1 complex. Mambalgin-1 was predicted to insert into the acidic pocket (also known as the acid-sensing pocket) inside t ...

[1] = target: B2; experiment: cryo-EM structure; settings: both partners purified
[2] = target: the molecule itself; experiment: cryo-EM structure; […] 5.7 Å overall map, 5.4 Å map of the extracellular part; poly-alanine model by rigid-body fitting of crystal structures

## F27A: mutation of mambalgin-1 in the Finger II region (LKCYQHGKVVTCHRDMKFCYHNTGMPARNLKLILQGCSSSCSETENNKCCSTDRCNK; disulfide (positions not given here); ends not checked; UniProt P0DKR6 22-78, looked up, variant F27A)
Chicken ASIC1a (cASIC1a)
  effect of mambalgin-1 point mutants on wild-type cASIC1a: perturbed the inhibitory effects of the cASIC1a channel

## K8A: mutation of mambalgin-1 in the Finger I region (LKCYQHGAVVTCHRDMKFCYHNTGMPFRNLKLILQGCSSSCSETENNKCCSTDRCNK; disulfide (positions not given here); ends not checked; UniProt P0DKR6 22-78, looked up, variant K8A)
Chicken ASIC1a (cASIC1a)
  effect of mambalgin-1 point mutants on wild-type cASIC1a: perturbed the inhibitory effects of the cASIC1a channel

## H6A: mutation of mambalgin-1 in the Finger I region (LKCYQAGKVVTCHRDMKFCYHNTGMPFRNLKLILQGCSSSCSETENNKCCSTDRCNK; disulfide (positions not given here); ends not checked; UniProt P0DKR6 22-78, looked up, variant H6A)
Chicken ASIC1a (cASIC1a)
  effect of mambalgin-1 point mutants on wild-type cASIC1a: perturbed the inhibitory effects of the cASIC1a channel

## LKCYQHGKVVTCHRDMKFCYHNTGMPFRNLKLILQGCSSSCSETENNKCCSTDRCNK-NH2 (disulfide 3-19, 12-37, 41-49, 50-55) [mambalgin-1]
Human ASIC1a (hASIC1a)
  IC50: 197 ± 18.7 nM
Chicken ASIC1a (cASIC1a); synthetic mambalgin-1, whole-cell recording at −70 mV, pH drop from 7.4 to 6.0 for 4 s, toxin applied 30 s before at pH 7.4 and during acid, room temperature, Hill fit, mean ± SE, n = 3–14
  IC50: 124 ± 20.3 nM
mice
  adverse side effects relative to traditional opioid drugs: fewer adverse side effects than traditional opioid drugs

## Q5A: mutation of mambalgin-1 in the Finger I region (LKCYAHGKVVTCHRDMKFCYHNTGMPFRNLKLILQGCSSSCSETENNKCCSTDRCNK; disulfide (positions not given here); ends not checked; UniProt P0DKR6 22-78, looked up, variant Q5A)
Chicken ASIC1a (cASIC1a)
  effect of mambalgin-1 point mutants on wild-type cASIC1a: perturbed the inhibitory effects of the cASIC1a channel

## R28A: mutation of mambalgin-1 in the Finger II region (LKCYQHGKVVTCHRDMKFCYHNTGMPFANLKLILQGCSSSCSETENNKCCSTDRCNK; disulfide (positions not given here); ends not checked; UniProt P0DKR6 22-78, looked up, variant R28A)
Chicken ASIC1a (cASIC1a)
  effect of mambalgin-1 point mutants on wild-type cASIC1a: perturbed the inhibitory effects of the cASIC1a channel

## PcTx1 (EDCIPKWKGCVNRHGDCCEGLECWKRRRSFEVCVPKTPKT; ends and bridges not checked; cysteine pairing not given here; UniProt P60514 1-40, looked up)
ASIC1a
  channel states bound, PcTx1: binds tightly to the open and desensitized states of ASIC1a

## B1
[1]
  stoichiometry N: 3 mambalgin-1 per cASIC1a trimer

## B2
[2]
  stoichiometry N: 3
